Measured values from article PMC3037356, “BosR (BB0647) Controls the RpoN-RpoS Regulatory Pathway and Virulence Expression in Borrelia burgdorferi by a Novel DNA-Binding Mechanism” (PLoS Pathogens, 2011).

B1: ZM127 (BS2) (dsDNA)
DNA 1: TTTAGTTTAAAACCATTTTTAAATTAAATTGGCACAGTTTTTGCATGAAAATTAAGTAGT
DNA 2: ACTACTTAATTTTCATGCAAAAACTGTGCCAATTTAATTTAAAAATGGTTTTAAACTAAA
B2: ZM132 (BS1) (dsDNA)
DNA 1: GGCCTTGCCGATTTAATTTACAATCAATTACAAAAAAGTAAATAATTCAAAAAATACTCC
DNA 2: GGAGTATTTTTTGAATTATTTACTTTTTTGTAATTGATTGTAAATTAAATCGGCAAGGCC
B3: ZM126 (dsDNA)
DNA 1: TTGCATGGAAATTAAGTAGTAAAAACTTAATCACAATATTCAAGAAAGGGGAGAAAATAT
DNA 2: ATATTTTCTCCCCTTTCTTGAATATTGTGATTAAGTTTTTACTACTTAATTTCCATGCAA
B4: ZM149 (dsDNA)
DNA 1: TTTAGTTTAAAACCATTTTTAAATTAAATTGGCACAGTTTTTGCATTTTAACAGGCAAAA
DNA 2: TTTTGCCTGTTAAAATGCAAAAACTGTGCCAATTTAATTTAAAAATGGTTTTAAACTAAA
B5: ZM156 (BS1 3' DR) (dsDNA)
DNA 1: GCTGAGATCTGTCGAATCAATTACAAAAAAGTAAATAATTCAAAAAATACTCCCCCTAAA
DNA 2: TTTAGGGGGAGTATTTTTTGAATTATTTACTTTTTTGTAATTGATTCGACAGATCTCAGC
B6: ZM211 (ZM156 DR mutant) (dsDNA)
DNA 1: GCTGAGATCTGTCGAATCAATTACAAAAAAGTAGGCCATTCAAAAAATACTCCCCCTAAA
DNA 2: TTTAGGGGGAGTATTTTTTGAATGGCCTACTTTTTTGTAATTGATTCGACAGATCTCAGC
B7: ZM155 (BS1 5' DR) (dsDNA)
DNA 1: CTCAAAGCTTTGGCCTTGCCGATTTAATTTACAATCAATTACAAAGCTGAGATCTGTCGA
DNA 2: TCGACAGATCTCAGCTTTGTAATTGATTGTAAATTAAATCGGCAAGGCCAAAGCTTTGAG
B8: ZM210 (ZM155 DR mutant) (dsDNA)
DNA 1: CTCAAAGCTTTGGCCTTGCCGATTTGGCCTACAATCAATTACAAAGCTGAGATCTGTCGA
DNA 2: TCGACAGATCTCAGCTTTGTAATTGATTGTAGGCCAAATCGGCAAGGCCAAAGCTTTGAG
B9: ZM160 (5' of BS3) (dsDNA)
DNA 1: TCACAATATTCAAGAAAGGGGAGAAAATATAATAACTATGAACATATTTAGTAATGAGGA
DNA 2: TCCTCATTACTAAATATGTTCATAGTTATTATATTTTCTCCCCTTTCTTGAATATTGTGA
B10: ZM147 (dsDNA)
DNA 1: AAAAAGCTGAGATCTGTCGACATCCATGGTGGCACAGTTTTTGCATGAAAATTAAGTAGT
DNA 2: ACTACTTAATTTTCATGCAAAAACTGTGCCACCATGGATGTCGACAGATCTCAGCTTTTT
B11: ZM218 (ZM217 DR mutant) (dsDNA)
DNA 1: AGTGTAAAAAGGCCAATCAATTTTTTCATTAAATATCCTTTTTATTTATTATGGTATTAA
DNA 2: TTAATACCATAATAAATAAAAAGGATATTTAATGAAAAAATTGATTGGCCTTTTTACACT
B12: ZM213 (DR1 mutant) (dsDNA)
DNA 1: ATTTTATATCCTAGGCCGTTTAAAACCATTTTTAAATTAAATTGGCACAGTTTTTGCATG
DNA 2: CATGCAAAAACTGTGCCAATTTAATTTAAAAATGGTTTTAAACGGCCTAGGATATAAAAT
B13: ZM223 (DR1 and DR2 mutant) (dsDNA)
DNA 1: ATTTTATATCCTAGGCCGTTTAAAACCATTTTTAGGCCAAATTGGCACAGTTTTTGCATG
DNA 2: CATGCAAAAACTGTGCCAATTTGGCCTAAAAATGGTTTTAAACGGCCTAGGATATAAAAT
B14: ZM216 (ZM215 DR mutant) (dsDNA)
DNA 1: TGGTTTAGATGGCCTTTTTTTCTCAATTCAGCAATTTCTGAATATAGAATTTTCATATCT
DNA 2: AGATATGAAAATTCTATATTCAGAAATTGCTGAATTGAGAAAAAAAGGCCATCTAAACCA
B15: ZM219 (bosR upstream) (dsDNA)
DNA 1: AAAAAAATATGAAAATAAATAAATAATAAGTAGTAAAATATTAATAACTGGGTATAAAAT
DNA 2: ATTTTATACCCAGTTATTAATATTTTACTACTTATTATTTATTTATTTTCATATTTTTTT
B16: ZM220 (ZM219 DR mutant) (dsDNA)
DNA 1: AAAAAAATATGAAAATGGCCAAATAATAAGTAGTAAAATATTAATAACTGGGTATAAAAT
DNA 2: ATTTTATACCCAGTTATTAATATTTTACTACTTATTATTTGGCCATTTTCATATTTTTTT
B17: ZM166 (-24/-12 and DR mutant) (dsDNA)
DNA 1: TTTAGTTTAAAACCATTTTTAGGCCAAATTTTCACAGTTTTTGAATTCCAACAGGCAAAA
DNA 2: TTTTGCCTGTTGGAATTCAAAAACTGTGAAAATTTGGCCTAAAAATGGTTTTAAACTAAA
B18: ZM157 (-24/-12 mutant) (dsDNA)
DNA 1: TTTAGTTTAAAACCATTTTTAAATTAAATTTTCACAGTTTTTGAATTCCAACAGGCAAAA
DNA 2: TTTTGCCTGTTGGAATTCAAAAACTGTGAAAATTTAATTTAAAAATGGTTTTAAACTAAA
B19: Recombinant BosR (BB0647) (natural protein)
chain: MNDNIIDVHSALEKVGITNDPVLLKNLTSELGMKASHSRNRIILYIASNPKEYFTAKEVYNKLIKEIPSLSKATVYNTLNILKERNILKDIKTTDQKETKFYLSLASTIAHFKCNKCNQVHPIQLDDIKDILKDKLGENWETKSIEIIYSGHCNNCYKKDTHNNNNVPDENKEITL
notes: BosR (BB0647), Fur/PerR homologue of Borrelia burgdorferi; bosR amplified with primers ZM69F and ZM69R and cloned into pET SUMO (pOY73); apparent mass ~18.7 kDa, as for native BosR; The protein contained 1.4 mol of zinc per mol of protein; also called rBosR; purified BosR; source: E. coli BL21-DE3, purified (Ni-NTA spin column, SUMO protease cleavage, Superdex 200); not shown: His6, N-terminal, …

The binders below were run against T1, BosR (rBosR) (UniProt O51592 1-176) (assay: EMSA; 20 mM Hepes pH 7.5, 50 mM KCl, 1 mM MgCl2, 1 mM DTT, 5% glycerol, 100 ug/ml BSA, 50 ug/ml poly[d(A-T)], 30 fmol probe in 20 ul, 37 C 30 min). Settings: protein: recombinant; tags: none (His6-SUMO tag removed by SUMO protease); chain copies: 2; label: digoxigenin 3' end (terminal transferase); blunt.
For B1, the Kd was 36.6 nM. B2 was tested, and the Kd was 210 nM.

Same assay, conditions: protein: recombinant; tags: none (His6-SUMO tag removed by SUMO protease); chain copies: 2; label: digoxigenin 3' end; blunt
B3: no binding. B4: binds. B5: binds. B6: no binding. B7: binds. B8: no binding. B9: no binding. B10: no binding. B11: no binding. B12: binds. B13: no binding. B14: no binding. B15: binds. B16: no binding. B17: no binding.

The binders below were run against T1, BosR (rBosR) (assay: EMSA; binding not altered; 20 mM Hepes pH 7.5, 50 mM KCl, 1 mM MgCl2, 1 mM DTT, 5% glycerol, 100 ug/ml BSA, 50 ug/ml poly[d(A-T)], 30 fmol probe in 20 ul, 37 C 30 min). Settings: protein: recombinant; tags: none (His6-SUMO tag removed by SUMO protease); chain copies: 2; label: digoxigenin 3' end; blunt.
B18: binds.

Target: the molecule itself
Test: SEC; purified BosR on a Superdex 200 column, calibrated with aldolase 158 kDa, ovalbumin 43 kDa and ribonuclease A 13.7 kDa; buffer A: 20 mM Tris, 20 mM NaCl, 100 mM L-arginine, pH 7.5
Settings: not given
With B19 the “stoichiometry N” value was 2.
